Here are results for one substance from article PMC4091980.

For one assay, the target named is PH domain of AKT (UniProt P31749). Briefly: SPR.
The target in a further assay is PH domain of PDK1 (UniProt O15530). Briefly: SPR.
Chain of UniProt O15530 (O15530 459-550): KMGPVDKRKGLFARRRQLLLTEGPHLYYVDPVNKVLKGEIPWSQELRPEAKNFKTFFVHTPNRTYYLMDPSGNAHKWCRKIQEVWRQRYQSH

The term Kd denotes the concentration at which binding is half-saturated. As for “PH domain of AKT (from UniProt P31749 5-108) (domain or fragment)”, the figures for the Kd in the assay with PH domain of AKT and with PH domain of PDK1 were 0.0376 µM and 0.0498 µM, respectively.
